Measurements as given in the supplement of paper PMC7125110.
± gives the standard error. This sample holds only a part of the variants without activity.

B1: glmS ribozyme (parent)
chain: AUAAAAGCGCCAGAACUACAGAAAUGUAGUUGACGAGGAGGAGGUUUAUCGAAUUUUCGGCGGAUGCCUCCAAA

How the values were obtained:
Conditions in all cases: with glucosamine-6-phosphate
glucosamine-6-phosphate [1] = variants of: B1; assay: self-cleavage kobs at 640 uM GlcN6P; higher = faster cleavage; RNA array
Method in brief: (§1)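 On sequenced MiSeq chips, barcoded ribozyme variants were made in situ by E. coli RNA polymerase and followed at 37 °C through a hybridised Cy3 probe. Glucosamine-6-phosphate was flowed in at 40 μM to 10 mM in HEPES/KCl/Mg(OAc)2 buffer. Exponential fits to normalised per-tile medians gave kobs, and weighted Michaelis–Menten fits gave kcat and KM.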

glucosamine-6-phosphate [2] = variants of: B1; assay: self-cleavage kobs at 2500 uM GlcN6P; higher = faster cleavage; RNA array
Method in brief: as §1

glucosamine-6-phosphate [3] = variants of: B1; assay: self-cleavage kobs at 160 uM GlcN6P; higher = faster cleavage; RNA array
Method in brief: as §1

glucosamine-6-phosphate [4] = variants of: B1; assay: self-cleavage kobs at 10000 uM GlcN6P; higher = faster cleavage; RNA array
Method in brief: as §1

Row | Variant | self-cleavage kobs at 640 uM GlcN6P (glucosamine-6-phosphate [1]) | self-cleavage kobs at 2500 uM GlcN6P (glucosamine-6-phosphate [2]) | self-cleavage kobs at 160 uM GlcN6P (glucosamine-6-phosphate [3]) | self-cleavage kobs at 10000 uM GlcN6P (glucosamine-6-phosphate [4])
1 | AUAAACGCGCUAGAACUACAGAAAUGUAGUUGACGAGGAGGAGGUUUAUCCAAUUUUCGGCGGAUGGAUCCAAA [A6C C11U G51C C67G C68A] | 0.000105 ± 2.8e-05 s⁻¹ | 0.00015 ± 3.5e-05 s⁻¹ | – | –
2 | AUAAAAGCGCCAGAACUACAGAAAUGUAGUUGACGAGGAGGAGGUUUAUCGAAUUUUCGGCGAAUGCCUGGAAA [G63A C70G C71G] | 4.83e-05 ± 1.9e-05 s⁻¹ | – | 5.57e-05 ± 1.4e-05 s⁻¹ | –
3 | AUCAAAGCGCCAGAACUACAGAAAUGUAGUUGACGAGGAGGAGGAUUAUCGAAUUUUCGGCGGAAGCCUCCAAA [A3C U45A U65A] | 0.00508 ± 0.0012 s⁻¹ | 0.00657 ± 0.001 s⁻¹ | – | –
4 | AUAAACGCGUAAGAACUACAGAAAUGUAGUUGACGAGGAGGAGGUUUAUCGAAUUCUCGGCGGAUGCCUCCAAA [A6C C10U C11A U56C] | < 1e-05 s⁻¹ | < 1e-05 s⁻¹ | – | –
5 | AUAAACGCGCCAGAAGUACAGAAAUGUAGUUGACGACGGGGAGGGUAAUCGAAUUUUCGGCGGAUGCCUCCAAA [A6C C16G G37C A39G U45G U47A] | < 1e-05 s⁻¹ | < 1e-05 s⁻¹ | – | –
6 | AUAAAAGCGCCAGAACUACAGAAAUGUAGUUGACGAGGAGGAGGUUUAUCGAAUUUUCGGCGGAUGCCGGCAAA [U69G C70G] | 0.000255 ± 0.00013 s⁻¹ | 3.6e-05 ± 9.1e-06 s⁻¹ | 3.61e-05 ± 8.8e-06 s⁻¹ | –
7 | AUAAAAGCGCCAGAACUACAGAAAUGUAGUUGACGAGGAGGAGGUUUAUCGAAUUUUCGGCAGAGGCCUCCAAA [G62A U65G] | < 1e-05 s⁻¹ | < 1e-05 s⁻¹ | < 1e-05 s⁻¹ | < 1e-05 s⁻¹
8 | AUAAAAGCGCCAGAACUACAGAAAUGUAGUUGACGAGGAGGAGGUUUAUCGAAUUUUCGGCGGAUGGAUCCAAA [C67G C68A] | 3.85e-05 ± 1.1e-05 s⁻¹ | 2.05e-05 ± 7.5e-06 s⁻¹ | 7.05e-05 ± 2.1e-05 s⁻¹ | –
9 | AUAAACGCGCCAGAACUACAGAAAUGUAGUUGACGAGGAGGAGGUUUAUCGAUUUUUCGGCGGAUGCCUUCAAA [A6C A53U C70U] | 6.59e-05 ± 3.2e-05 s⁻¹ | – | – | –
10 | AUAAAAGCGCCAGAACUACAGAAAUGUAGUUGACGAGGAGGAGGUUUAUCGAAUUUUCUGCGGAUGUCACCAAA [G59U C67U U69A] | – | – | 6.91e-05 ± 2.5e-05 s⁻¹ | –
11 | AUAAAAGCGCCAGAACUACAGAAAUGUAGUUGACGAGGAGGAGGUUUAUCGAAUUUUCGUCGCAUGCCUGCAAA [G60U G63C C70G] | < 1e-05 s⁻¹ | – | < 1e-05 s⁻¹ | –
12 | AUAAACGCCCCAGAACUACAGAAAUGUAGUUAACGAGGAGGAGGUUUAUUGAGUUUUCGGCGGAUGCCUCCAAA [A6C G9C G32A C50U A53G] | < 1e-05 s⁻¹ | < 1e-05 s⁻¹ | – | –
13 | AUAAAAGCGCCAGAACUACAGAAAUGUAGUUGACGAGGAGGAGGUUUAUCGAAUUUUCGGAGGCUGCCUCCAAA [C61A A64C] | < 1e-05 s⁻¹ | < 1e-05 s⁻¹ | < 1e-05 s⁻¹ | < 1e-05 s⁻¹
14 | AUAAAAGCGCCAGAACUACAGAAAUGUAGUUGACGAGGAGGAGGUUUAUCGAAUUUUCGGUUGAUGCCUCCAAA [C61U G62U] | < 1e-05 s⁻¹ | – | < 1e-05 s⁻¹ | < 1e-05 s⁻¹
15 | AUAAAAGCGCCAGAACUACAGAAAUGUAGUUGACGAGGAGGAGGUUUAUCGAAUUUUCGGCGGAUACCGCCAAA [G66A U69G] | 0.000427 ± 0.0001 s⁻¹ | 0.00012 ± 2.1e-05 s⁻¹ | 8.36e-05 ± 2.3e-05 s⁻¹ | 4.74e-05 ± 1.7e-05 s⁻¹
